What is called pKi is the negative decadic logarithm of the Ki, by convention in mol/L. Read a high pKi as a small Ki.

For one substance, Ki results are on record in article PMC2275626.

pKi: −log10 of the molar value. “And” between values parts separate entries of the source, which are not always exact repeats. Identical values can stand only once.

The target of the experiment is acetamidofluorescein-F-actin on antifluorescein IgG-Sephacryl S-1000 beads (rabbit) (UniProt P68135). The experiment in a line: co-sedimentation.

myosin subfragment-1 (domain or fragment), sequence (Q28641 whole entry, the tested form may be a part): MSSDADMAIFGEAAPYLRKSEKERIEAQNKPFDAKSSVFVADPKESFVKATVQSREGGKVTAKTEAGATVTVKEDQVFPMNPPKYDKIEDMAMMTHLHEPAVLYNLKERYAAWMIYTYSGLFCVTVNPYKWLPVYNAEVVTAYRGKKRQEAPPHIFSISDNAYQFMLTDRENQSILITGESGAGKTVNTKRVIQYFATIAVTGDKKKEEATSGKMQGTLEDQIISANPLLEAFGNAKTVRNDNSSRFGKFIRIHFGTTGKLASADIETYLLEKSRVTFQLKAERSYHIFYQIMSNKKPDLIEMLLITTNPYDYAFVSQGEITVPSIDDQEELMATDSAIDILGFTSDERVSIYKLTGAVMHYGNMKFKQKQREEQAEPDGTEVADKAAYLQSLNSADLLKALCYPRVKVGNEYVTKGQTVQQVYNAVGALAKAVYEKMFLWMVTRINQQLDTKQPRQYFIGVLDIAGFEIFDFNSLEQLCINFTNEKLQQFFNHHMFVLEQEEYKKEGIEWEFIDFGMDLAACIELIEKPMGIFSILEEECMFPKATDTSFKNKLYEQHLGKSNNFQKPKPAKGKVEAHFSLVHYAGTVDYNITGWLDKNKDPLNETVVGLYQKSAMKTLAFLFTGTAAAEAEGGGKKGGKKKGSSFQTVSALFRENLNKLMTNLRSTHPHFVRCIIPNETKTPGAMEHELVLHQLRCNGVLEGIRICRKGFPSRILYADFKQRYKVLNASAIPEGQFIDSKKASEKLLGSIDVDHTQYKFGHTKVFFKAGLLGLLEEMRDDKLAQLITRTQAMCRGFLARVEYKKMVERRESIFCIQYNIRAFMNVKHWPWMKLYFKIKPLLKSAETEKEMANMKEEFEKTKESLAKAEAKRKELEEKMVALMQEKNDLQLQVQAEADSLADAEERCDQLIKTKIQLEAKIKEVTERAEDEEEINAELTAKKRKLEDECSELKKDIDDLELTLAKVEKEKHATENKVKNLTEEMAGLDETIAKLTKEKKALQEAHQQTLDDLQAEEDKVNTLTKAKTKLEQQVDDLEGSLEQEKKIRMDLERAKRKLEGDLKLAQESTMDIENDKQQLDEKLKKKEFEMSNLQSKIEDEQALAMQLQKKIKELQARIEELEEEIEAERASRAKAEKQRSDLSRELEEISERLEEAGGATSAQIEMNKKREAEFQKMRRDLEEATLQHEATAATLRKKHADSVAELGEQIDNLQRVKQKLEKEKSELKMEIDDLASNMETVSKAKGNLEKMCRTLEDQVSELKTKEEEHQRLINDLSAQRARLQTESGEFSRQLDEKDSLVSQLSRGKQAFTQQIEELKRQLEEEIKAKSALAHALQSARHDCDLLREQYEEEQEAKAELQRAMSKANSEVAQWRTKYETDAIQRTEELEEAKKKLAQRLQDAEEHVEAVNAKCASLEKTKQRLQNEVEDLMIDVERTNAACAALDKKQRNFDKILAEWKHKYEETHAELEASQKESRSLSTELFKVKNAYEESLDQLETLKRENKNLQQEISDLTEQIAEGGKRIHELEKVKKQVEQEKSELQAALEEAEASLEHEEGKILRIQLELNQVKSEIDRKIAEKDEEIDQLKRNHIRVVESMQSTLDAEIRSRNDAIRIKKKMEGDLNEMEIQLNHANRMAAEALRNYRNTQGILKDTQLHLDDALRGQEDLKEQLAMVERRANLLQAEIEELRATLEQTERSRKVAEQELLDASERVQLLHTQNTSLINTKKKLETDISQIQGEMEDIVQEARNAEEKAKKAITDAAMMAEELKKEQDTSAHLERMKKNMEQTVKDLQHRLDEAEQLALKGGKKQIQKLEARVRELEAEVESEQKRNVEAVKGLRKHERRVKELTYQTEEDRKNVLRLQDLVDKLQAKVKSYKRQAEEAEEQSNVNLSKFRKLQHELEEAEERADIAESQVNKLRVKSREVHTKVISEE

As for “myosin subfragment-1 (domain or fragment)”, the pKi is 7.40 and 7.60 and 7.10.
